Assay results published in FireProtDB (doi:10.1006/jmbi.1995.0325).

B1: Subtilisin inhibitor, P01006 (parent)
chain: MRNTGAGPSPSVSRPPPSAAPLSGAALAAPGDAPSALYAPSALVLTVGKGVSATTAAPERAVTLTCAPGPSGTHPAAGSACADLAAVGGDLNALTRGEDVMCPMVYDPVLLTVDGVWQGKRVSYERVFSNECEMNAHGSSVFAF

Variants of: B1
Details: Streptomyces albogriseolus, Thermal, DSC, reversible: yes, structure 3SSI, whole UniProt chain shown; for ddG of mutation (higher = less stable) / unfolding free energy: 53.36 °C

Variant	ddG of mutation (higher = less stable) (pH 3.2, glycine 25 mM)	unfolding free energy (pH 3.2, glycine 25 mM)	Tm (pH 3.2, glycine 25 mM)	change of melting temperature, mutant - wild type (higher = more stable) (pH 3.2, glycine 25 mM)	unfolding enthalpy (calorimetric) (pH 3.2, glycine 25 mM)	ddG of mutation (higher = less stable) (pH 7, phosphate 25 mM)	unfolding free energy (pH 7, phosphate 25 mM)	Tm (pH 7, phosphate 25 mM)	change of melting temperature, mutant - wild type (higher = more stable) (pH 7, phosphate 25 mM)	unfolding enthalpy (calorimetric) (pH 7, phosphate 25 mM)	ddG of mutation (higher = less stable) (pH 9.5, glycine 25 mM)	unfolding free energy (pH 9.5, glycine 25 mM)	Tm (pH 9.5, glycine 25 mM)	change of melting temperature, mutant - wild type (higher = more stable) (pH 9.5, glycine 25 mM)	unfolding enthalpy (calorimetric) (pH 9.5, glycine 25 mM)
MRNTGAGPSPSVSRPPPSAAPLSGAALAAPGDAPSALYAPSALVLTVGKGVSATTAAPERAVTLTCAPGPSGTHPAAGSACADLAAVGGDLNALTRGEDVMCPEVYDPVLLTVDGVWQGKRVSYERVFSNECEMNAHGSSVFAF	-0.35 kcal/mol	5.9 kcal/mol	54.3 °C	0.98 °C	103 kcal/mol	-1.05 kcal/mol	7.08 kcal/mol	84.2 °C	1.99 °C	185 kcal/mol	–	–	–	–	–
MRNTGAGPSPSVSRPPPSAAPLSGAALAAPGDAPSALYAPSALVLTVGKGVSATTAAPERAVTLTCAPGPSGTHPAAGSACADLAAVGGDLNALTRGEDVMCPAVYDPVLLTVDGVWQGKRVSYERVFSNECEMNAHGSSVFAF	-0.54 kcal/mol	6.09 kcal/mol	55 °C	1.66 °C	101 kcal/mol	-0.55 kcal/mol	6.58 kcal/mol	83.4 °C	1.16 °C	183 kcal/mol	-0.13 kcal/mol	6.17 kcal/mol	80.9 °C	0.18 °C	178 kcal/mol
MRNTGAGPSPSVSRPPPSAAPLSGAALAAPGDAPSALYAPSALVLTVGKGVSATTAAPERAVTLTCAPGPSGTHPAAGSACADLAAVGGDLNALTRGEDVMCPIVYDPVLLTVDGVWQGKRVSYERVFSNECEMNAHGSSVFAF	0.73 kcal/mol	4.82 kcal/mol	–	–	–	0.94 kcal/mol	5.09 kcal/mol	80.4 °C	-1.78 °C	193 kcal/mol	–	–	78.3 °C	-2.42 °C	189 kcal/mol
MRNTGAGPSPSVSRPPPSAAPLSGAALAAPGDAPSALYAPSALVLTVGKGVSATTAAPERAVTLTCAPGPSGTHPAAGSACADLAAVGGDLNALTRGEDVMCPGVYDPVLLTVDGVWQGKRVSYERVFSNECEMNAHGSSVFAF	–	–	52.7 °C	-0.7 °C	106 kcal/mol	0.06 kcal/mol	5.97 kcal/mol	–	–	–	0.49 kcal/mol	5.55 kcal/mol	79.8 °C	-0.87 °C	186 kcal/mol
MRNTGAGPSPSVSRPPPSAAPLSGAALAAPGDAPSALYAPSALVLTVGKGVSATTAAPERAVTLTCAPGPSGTHPAAGSACADLAAVGGDLNALTRGEDVMCPLVYDPVLLTVDGVWQGKRVSYERVFSNECEMNAHGSSVFAF	0.13 kcal/mol	5.42 kcal/mol	52.9 °C	-0.43 °C	108 kcal/mol	0.25 kcal/mol	5.78 kcal/mol	81.8 °C	-0.46 °C	193 kcal/mol	0.55 kcal/mol	5.49 kcal/mol	–	–	–
MRNTGAGPSPSVSRPPPSAAPLSGAALAAPGDAPSALYAPSALVLTVGKGVSATTAAPERAVTLTCAPGPSGTHPAAGSACADLAAVGGDLNALTRGEDVMCPKVYDPVLLTVDGVWQGKRVSYERVFSNECEMNAHGSSVFAF	–	–	57.1 °C	3.71 °C	107 kcal/mol	-0.35 kcal/mol	6.38 kcal/mol	82.9 °C	0.65 °C	192 kcal/mol	-0.05 kcal/mol	6.09 kcal/mol	80.9 °C	0.17 °C	188 kcal/mol
MRNTGAGPSPSVSRPPPSAAPLSGAALAAPGDAPSALYAPSALVLTVGKGVSATTAAPERAVTLTCAPGPSGTHPAAGSACADLAAVGGDLNALTRGEDVMCPDVYDPVLLTVDGVWQGKRVSYERVFSNECEMNAHGSSVFAF	–	–	56.8 °C	3.46 °C	98.7 kcal/mol	-1.6 kcal/mol	7.63 kcal/mol	85.3 °C	3.08 °C	182 kcal/mol	-1.25 kcal/mol	7.29 kcal/mol	83.3 °C	2.59 °C	177 kcal/mol
MRNTGAGPSPSVSRPPPSAAPLSGAALAAPGDAPSALYAPSALVLTVGKGVSATTAAPERAVTLTCAPGPSGTHPAAGSACADLAAVGGDLNALTRGEDVMCPVVYDPVLLTVDGVWQGKRVSYERVFSNECEMNAHGSSVFAF	0.46 kcal/mol	5.09 kcal/mol	–	–	–	0.66 kcal/mol	5.37 kcal/mol	81 °C	-1.17 °C	193 kcal/mol	0.95 kcal/mol	5.09 kcal/mol	79 °C	-1.75 °C	189 kcal/mol
